Test results taken from patent publication US20100183556A1.
Values belong to the substance of their own block, whether it stands above or below them.

Molecular target: B-domain-deleted human coagulation factor VIII (human) (UniProt P00451)
Test: cell-based or functional assay

UniProt P00451, sequence (P00451 other isoform, or with tags, fused parts or gaps limits assumed): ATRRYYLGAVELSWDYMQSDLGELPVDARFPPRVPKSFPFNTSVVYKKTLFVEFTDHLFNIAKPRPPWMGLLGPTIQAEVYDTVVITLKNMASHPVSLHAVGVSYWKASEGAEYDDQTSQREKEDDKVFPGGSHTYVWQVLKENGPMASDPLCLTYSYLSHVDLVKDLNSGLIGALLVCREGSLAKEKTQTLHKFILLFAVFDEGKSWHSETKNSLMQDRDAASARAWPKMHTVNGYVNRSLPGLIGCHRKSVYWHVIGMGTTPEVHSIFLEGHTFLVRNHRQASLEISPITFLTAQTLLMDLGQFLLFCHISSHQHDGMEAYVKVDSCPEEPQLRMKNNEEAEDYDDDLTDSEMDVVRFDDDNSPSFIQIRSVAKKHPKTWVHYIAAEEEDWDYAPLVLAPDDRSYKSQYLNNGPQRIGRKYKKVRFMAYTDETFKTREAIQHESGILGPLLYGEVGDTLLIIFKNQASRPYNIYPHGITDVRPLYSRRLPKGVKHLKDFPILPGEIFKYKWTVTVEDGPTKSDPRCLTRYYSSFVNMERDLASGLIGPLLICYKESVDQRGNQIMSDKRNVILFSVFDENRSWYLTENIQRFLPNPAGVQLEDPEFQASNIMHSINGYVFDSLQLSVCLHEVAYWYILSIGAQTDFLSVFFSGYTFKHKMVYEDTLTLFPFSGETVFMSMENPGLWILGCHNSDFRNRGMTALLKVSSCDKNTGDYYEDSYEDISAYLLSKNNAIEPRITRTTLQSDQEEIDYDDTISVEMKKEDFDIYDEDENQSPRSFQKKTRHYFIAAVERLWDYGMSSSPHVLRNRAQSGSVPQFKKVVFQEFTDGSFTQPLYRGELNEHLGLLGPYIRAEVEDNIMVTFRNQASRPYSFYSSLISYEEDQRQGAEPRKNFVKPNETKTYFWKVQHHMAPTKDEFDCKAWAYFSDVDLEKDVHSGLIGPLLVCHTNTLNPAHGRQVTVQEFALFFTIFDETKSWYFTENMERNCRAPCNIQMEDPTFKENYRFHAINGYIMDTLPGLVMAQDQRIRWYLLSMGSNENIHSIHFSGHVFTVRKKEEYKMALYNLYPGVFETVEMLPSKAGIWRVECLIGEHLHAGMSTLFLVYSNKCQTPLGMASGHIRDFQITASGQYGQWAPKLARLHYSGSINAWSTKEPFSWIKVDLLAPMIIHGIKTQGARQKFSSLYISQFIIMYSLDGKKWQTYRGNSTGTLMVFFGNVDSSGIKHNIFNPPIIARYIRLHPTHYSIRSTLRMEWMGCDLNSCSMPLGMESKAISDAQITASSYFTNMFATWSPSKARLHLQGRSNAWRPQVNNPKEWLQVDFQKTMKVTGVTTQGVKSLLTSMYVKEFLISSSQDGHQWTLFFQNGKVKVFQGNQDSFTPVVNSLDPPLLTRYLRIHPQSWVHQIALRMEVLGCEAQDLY

- FVIII activity (chromogenic assay) in supernatant of 293T cells co-transfected with pREP7-BDD.FVIII and pRex52: 199
- FVIII activity in supernatant of K562 cells co-transduced with vBDD.FVIII and vEx52 at a MOI of 1.5: 28.3
Substance: full length von Willebrand factor (vWF) (from UniProt P04275 23-2813)

- FVIII activity (chromogenic assay) in supernatant of 293T cells co-transfected with pREP7-BDD.FVIII and pRex23: 28.9
- FVIII activity in supernatant of K562 cells co-transduced with vBDD.FVIII and vEx23 at a MOI of 1.5: 33.9
Substance: mutant von Willebrand factor vWF23 (exons 24-46 of vWF deleted) (from UniProt P04275 23-2813)

- FVIII activity (chromogenic assay) in supernatant of 293T cells co-transfected with pREP7-BDD.FVIII and pRex28: 107
- FVIII activity in supernatant of K562 cells co-transduced with vBDD.FVIII and vEx28 at a MOI of 1.5: 53.3
Substance: mutant von Willebrand factor vWF28 (exons 29-46 of vWF deleted) (from UniProt P04275 23-2813)
